Consider two molecules from patent publication US20250074980A1 (BRIGHAM AND WOMEN S HOSPITAL, published 2025).

The target in assay [1] is T1, His-tagged CEACAM1 (human, UniProt P13688 35-428).
T1 construct: 45 kDa SPR analyte; also called CEACAM1-HIS; CEACAM1 analyte
T1 sequence: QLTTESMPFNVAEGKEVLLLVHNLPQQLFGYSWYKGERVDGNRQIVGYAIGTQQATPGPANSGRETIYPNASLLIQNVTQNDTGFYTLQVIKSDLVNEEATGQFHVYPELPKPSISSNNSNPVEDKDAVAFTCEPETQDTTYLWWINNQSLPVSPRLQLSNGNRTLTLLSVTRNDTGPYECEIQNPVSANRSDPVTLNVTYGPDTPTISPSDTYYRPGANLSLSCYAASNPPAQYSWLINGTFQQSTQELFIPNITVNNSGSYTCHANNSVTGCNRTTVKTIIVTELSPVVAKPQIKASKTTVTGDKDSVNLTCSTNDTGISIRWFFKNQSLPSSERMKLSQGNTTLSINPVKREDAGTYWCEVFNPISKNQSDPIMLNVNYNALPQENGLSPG
Nature of the assay: SPR multi-cycle. The method, boiled down:
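Surface plasmon resonance multi-cycle kinetics on a Biacore T200 at 25° C in HBS-P+ (pH 7.4). Purified antibody at 1 μg/ml was captured on a Series S Protein A chip to ~75 RU, with His-tagged CEACAM1 analyte in 2-fold dilutions from 200 to 3.125 nM or 100 to 1.5625 nM at 80 μl/min. Association was 50 or 150 seconds and dissociation 100 seconds, with glycine-HCl pH 1.5 regeneration. Kon, koff, Kd and relative KD come from these sensorgrams.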

For assay [2], the target named is T2, CEACAM8 on transfected HeLa cells (human, UniProt P31997 35-320).
T2 construct: whole, on cells; also called HeLa-CEACAM8; HeLa C8
T2 sequence (looked up): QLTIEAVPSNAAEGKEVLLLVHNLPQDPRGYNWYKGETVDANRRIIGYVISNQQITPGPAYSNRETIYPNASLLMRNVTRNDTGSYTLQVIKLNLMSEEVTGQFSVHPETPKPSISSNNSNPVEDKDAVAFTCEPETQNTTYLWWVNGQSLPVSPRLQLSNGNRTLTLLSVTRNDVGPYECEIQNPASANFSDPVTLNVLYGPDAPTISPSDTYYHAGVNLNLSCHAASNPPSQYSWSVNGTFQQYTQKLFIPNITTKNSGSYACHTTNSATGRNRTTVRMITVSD
Nature of the assay: flow cytometry titration, HeLa-CEACAM8 transfectants, anti-human IgG4 FITC. As for the experimental part:
FIGS. 31A and 31B show flow cytometry analyses of stable HeLa CEACAM1 (HeLa C1) transfectant, stable HeLa CEACAM3 transfectant (HeLa C3), stable HeLa CEACAM5 transfectant (HeLa C5), stable HeLa CEACAM6 transfectant (HeLa C6), and stable HeLa CEACAM8 transfectant (HeLa C8). FIG. 31A: 5×10\hat{ }4 indicated HeLa transfectants were washed with staining buffer and CP08H03/Vκ8 S29A (labeled “CP08”, left) or CEACAM1 antibody CM-24 was incubated at room temperature for 30 min, washed twice with staining buffer, and stained for anti-human IgG4 Fluorescein isothiocyanate (FITC) conjugated secondary antibody at room temperature for 20 min. Fluorescence intensities were determined by flow cytometry. Live cells were determined by 4′,6-diamidino-2-phenylindole (DAPI) staining as shown on the y-axis. Staining with the respective CEACAM1 antibody is shown on the x-axis. […]
The cervical adenocarcinoma cell line HeLa (ATCC No CCL-2) as well as transfected cell lines HeLaCEACAM1, HeLaCEACAM3, HeLaCEACAM5, HeLaCEACAM6 and HeLaCEACAM8 used for flow cytometry experiments were cultured at 37° C., 5.0% CO₂ in Dulbecco's modified Eagle's medium supplemented with 10% fetal bovine serum, penicillin (100 U/ml) and dihydrostreptomycin (100 μg/ml). […] Data were acquired with a Cytoflex flow cytometer (Invitrogen) and analyzed with FlowJo software (TreeStar, V7.6.5 for Windows).
(Flow cytometry measures light scatter and fluorescence of single cells or particles in a stream.)

In assay [3] the target is T3, GST-CEACAM1 (human, UniProt P13688 35-141, limits assumed).
T3 construct: also called human CEACAM1-GST protein
T3 sequence: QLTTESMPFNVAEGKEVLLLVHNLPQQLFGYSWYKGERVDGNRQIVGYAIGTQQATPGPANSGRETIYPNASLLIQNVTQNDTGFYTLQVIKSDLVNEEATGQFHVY
Kind of assay: competition ELISA: binding of human CEACAM1-GST (37.5 µg/ml) to human TIM-3 IgV domain tagless protein (3 µg/ml), anti-GST detection, OD 450 nm. How it is done: The ability of the CEACAM1 antibodies to reduce the binding of CEACAM1 to TIM-3 was examined. […] In addition, human IgG4 antibody was used as a control (0-1000 nM). Goat polyclonal anti-GST-HSP antibody from Abcam (1:2000) was used and assays were developed by addition of TMB solution (Life technologies). OD values were read at 450 nm on a plate reader. Data was plotted in a Graphpad and best-fit IC-50 values were determined.
For orientation: ELISA stands for enzyme-linked immunosorbent assay.

B1: chimeric antibody VH0/Vκ0 (antibody, IgG4, V domains shown)
VH: EVQLVESGGDLVKPGGSLKLACAASGFIFSSHGMSWVRQTPDKRLEWVATISSGGTYTYYPDSVKGRFTISRDNDKNTLYLQMNSLKSEDTAMYYCARHDFDYDAAWFAYWGQGTLVTVSS
VL: QIVLTQSPALMSASPGVKVTMTCSANSSVSYMYWYRQKPRSSPKPWIYLTSNLASGVPARFSGSGSGTSYSLTISSMEAEDAATYYCQQWSSNPPTFGSGTKLEIK
notes: IgG4 (S241P), kappa; also called VH0/Vκ0 (control); Chimeric VH0/Vκ0
Take B1: in assay [1], the Kd came out at 0.105 µM, the koff stood at 0.0258 s⁻¹, the kon came out at 246000 M⁻¹ s⁻¹ and the “relative KD” value turned out to be 1.

B2: CP08H03/Vκ8 S29A (antibody, IgG4, V domains shown)
VH: EVQLLESGGGLVQPGGSLRLSCAASGFIFSSHGMSWVRQAPGKGLEWVATISSGGTYTYYPDSVKGRFTISRDNSKNTLYLQMNSLKAEDTAMYYCARHDFDYFPYWFAHWGQGTLVTVSS
VL: EIVLTQSPATLSLSPGERATLSCRANSAVSYMYWYQQKPGQAPRPWIYLTSNRATGVPARFSGSGSGTDYTLTISSLEPEDFAVYYCQQWSSNPPTFGQGTKLEIK
notes: IgG4 (S241P), kappa; also called CP08_H03/Parent VL; CP08_H03/Parental
In the case of B2, the binding result in assay [2] is “no binding (tested: 100 ug/ml)”. The molecule also showed an IC50 in assay [3] of 0.0319 µM.

For orientation: Kd means the equilibrium constant for the complex coming apart. A high value points to a looser complex. By koff is commonly meant the first-order rate constant of dissociation. High values mean a short-lived complex, low ones a long-lived complex. One may read the kon as the second-order rate constant of association. As usually defined, the IC50 is the concentration needed to halve the response being measured. The low end stands for higher potency, the high end for lower potency.
